# Source: the RNAGym collection of RNA variant scans (doi:10.1073/pnas.2313332121)
# Fewer inactive variants are shown than the library holds.
# B1: TPR 5TU (parent)
# chain: GGAUCUUCUCGAUCUAACAAAAAAGACAAAUCUGCCACAAAGCUUGAGAGCAUCUUCGGAUGCAGAGGCGGCAGCCUUCGGUGGCGCGAUAGCGCCAACGUUCUCAACUAUGACACGCAAAACGCGUGCUCCGUUGAAUGGAGUUUAUCAUG
# Variants of: B1
# Assay: polymerase ribozyme fitness, log enrichment relative to wild type (log ratio); higher = more active; in vitro selection for triplet polymerase activity
# Method in brief: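 Fitness is a logarithmic measure of how a genotype enriched relative to the wild type, with replicate averages weighted by inverse variance. The logarithm uses base 2, and enrichment came from Illumina sequencing of input and output libraries. Those libraries were PCR-built, transcribed mutants of each subunit of a heterodimeric triplet polymerase ribozyme, passed through one triplicate in vitro selection round that included frozen incubation at −7 °C, gel excision of extended constructs and streptavidin-bead capture. Genotypes were kept only if they had ≥10 input reads and ≥1 read per output.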
row,Variant,polymerase ribozyme fitness (log ratio)
1,U33G C54A C96A A98U,-4.06
2,G34C C93A A106U,≤ -4.2
3,U31A C38G G58A,0.153
4,A30C C75G G81U C87U A120U,-4.16
5,C32G A37U U53A,≤ -4.2
6,C32G C76A C87A,≤ -4.2
7,U31C A40C A41C,-0.373
8,A30G A49G U56A A66U C79U C85U G128A,≤ -4.2
9,A30G C149G,≤ -4.2
10,U31A C79U,-2.71
11,A30U C38G C93U,≤ -4.2
12,U31G G48U G58A C79A C85U U101G,≤ -4.2
13,U31G G46C C79U G117C U144C,≤ -4.2
14,U31A A40U A49C U61A C76G C85U,≤ -4.2
15,A30U U45G G50A A66G A113G G152A,≤ -4.2
16,C32G A47G C72A A73C C96A U127C,≤ -4.2
17,G34C C93U A98U,-3.85
18,U31A C93A C129U,-2.44
19,U33G C57G U104G,≤ -4.2
20,U33G A47U A49G C75A C76U A91U C93G A98U C114A G136C,≤ -4.2
21,A30G C79U G140C,≤ -4.2
22,U31C U45C A49U G80A C114A U130C U134A,≤ -4.2
23,C32G C57U G83U C103A C116U U127G G143U,≤ -4.2
24,A30U U55A C79U C87U A115C C118G,≤ -4.2

row,Variant,polymerase ribozyme fitness (log ratio)
1,U33C A37C A64U,≤ -4.2
2,U31G A49C A52G A97C A120U U135C U148G,≤ -4.2
3,U31C G94C,0.811
4,C32A G50A C57A U82A C99A U101A,≤ -4.2
5,A30G A47G G71C C87G U135G,≤ -4.2
6,C32U C36G A39U G59U A120G,-4.07
7,U31C A52U G58A C95G U145A,-3.19
8,A30U C32A C54U C87A A107U,≤ -4.2
9,C32A G71U A91G A119G A120U U127C G136C,≤ -4.2
10,U33C C43G G50C G58A G86A C105A A137G,≤ -4.2
11,C32G G46U A47C G59A,-4.03
12,G34A U82G C96A C99G,≤ -4.2
13,G34A G70A A89G A122G,-4.01
14,C32A A37G C54A G86C C99A A113G C125U U135A,≤ -4.2
15,G34U G58U C87A A98C G143C,≤ -4.2
16,A30G A52C A60C C125U,≤ -4.2
17,U31C C85G A89G C93U,≤ -4.2
18,C32U A66G A98U,-4.11
19,G34C U61G A150G,≤ -4.2
20,G34A C38A C76G C99G U104A A107U G143A,≤ -4.2
21,U31A A47G A73U G83A,-3.5
22,A30G C54U A91U U102G U109G A110G G133C A147U,≤ -4.2
23,U31C A49C C93G U135G G143A,≤ -4.2
24,U33C C54A U55A G83A C96A C125G G126C U127G,≤ -4.2

row,Variant,polymerase ribozyme fitness (log ratio)
1,A30C C69G C76A G94A G140A,≤ -4.2
2,G34C U56A G128A U135C G140U,≤ -4.2
3,U31C G92A C118G,-2.66
4,A30U U53G G84A,-4.15
5,G34A U55A A91G G117U,-4.06
6,U33A U56A C93A G94A A110C A120G U134G U145G,≤ -4.2
7,U31A C95G A119U,-1.25
8,C32U C96G U130G,-3.47
9,A30C C36A A52G C108A G152A,≤ -4.2
10,A30C C38G A49C U61A A66C G67C C93G A110U G124C G143A,≤ -4.2
11,U31G G83U,-0.727
12,U31G G84U,-0.431
13,A30G A60C G67U G68U G84U G117A U139A,≤ -4.2
14,A30U G46A U55A G74A U145A,≤ -4.2
15,A30G A91U,-4.18
16,C32A A49U C72A C85A U90G A98G A120C U151A,≤ -4.2
17,G34A A41C C54A U55A C95A C103A A150C,≤ -4.2
18,U31C G48A C79A C105U A120G G141U A147C,≤ -4.2
19,C32U G65A G71C G94U,≤ -4.2
20,G34C C85G G141U,-4.04
21,U31A C116U,-0.00779
22,A30U U33C C36G U56A C85U C114G,-3.84
23,U31G U33A A89G U144C U146A,-4.01
24,A30C C79U A119U C129G U134G A150G,-4.04

row,Variant,polymerase ribozyme fitness (log ratio)
1,U31C A49U G74A G84U G117C G133U A142C,≤ -4.2
2,U33A U55G A73G G83U G86U A89U G136A,≤ -4.2
3,C32U C43A C87G A107C C118U G124C,≤ -4.2
4,A30G A106U A115U C116A A120G,≤ -4.2
5,U31A G143A,-0.454
6,U33C C38G C93G A137G G141C,≤ -4.2
7,C32G G81A,-4.14
8,U31G A40G C54A C93A C103A U109A U134A G136U,≤ -4.2
9,U31C G48C G94C A106U,≤ -4.2
10,A30C U55A C57G C93U C105G G124U,≤ -4.2
11,C32U A52U G84U,≤ -4.2
12,A30U G83A C95A U135G,≤ -4.2
13,C32G U53A G86C A91C A120U A121U,≤ -4.2
14,G34A U56C G126U,-1.64
15,G34C G83A A91U U102C G112U A113U A142C,≤ -4.2
16,A30U G94A G141A,≤ -4.2
17,U31C U45G G46C G83U G94C A115U A119C A142U A150U,≤ -4.2
18,C32U G126U,-2.43
19,U31G C38A U45A G83C C95A,≤ -4.2
20,C32G A64U C105U G152U,≤ -4.2
21,U31C C76G U109G A119G G141C,≤ -4.2
22,C32G A41C A60U G92U G140C,≤ -4.2
23,A30C C51U G58U G80A,≤ -4.2
24,U31A G50A C57U C85U A119C,-1.76

row,Variant,polymerase ribozyme fitness (log ratio)
1,C32G U33G G92A C114U,-4.15
2,U31G G48C U111G G143A,≤ -4.2
3,U31A C63U G84A C103A G112A A137U G152U,≤ -4.2
4,U31A C69A G92U A115U,-3.26
5,A30G A49G,≤ -4.2
6,U31G C99G U102G C108A C125U U127G U145G,≤ -4.2
7,U31C A89C C93U U135A,-2.87
8,U33G A98U G124C,-3.27
9,A30U C95A,-3.34
10,U33G G58A G86A,-4.02
11,U33A G84A,-3.81
12,A30U G42U G65A G86U A121U,≤ -4.2
13,U33A C51U C57G C75G C93U C125A G140U,≤ -4.2
14,U31C A64G G84A A91U C99A U135C G141C,≤ -4.2
15,A30U G80A G81U C85U U104A C105G,≤ -4.2
16,U31G A60U,0.29
17,U31G A60C,-1.23
18,C32G C76A C99A,-4.15
19,A30U C96U,-3.12
20,U33G G94A,-3.04
21,U31C U148A,-2.56
22,U31C C87A C108U U148C,-3.95
23,G34U G83U A91C C99U A107U,≤ -4.2
24,C32U C75U G81A G84C A121C U127C A138G G140A,≤ -4.2

row,Variant,polymerase ribozyme fitness (log ratio)
1,G34A A37G U61C,≤ -4.2
2,U33G U44A C93A C103A C105G G133C,≤ -4.2
3,U31G A39G C85U G94C,-3.27
4,A30U U78C G94U A98G G152A,≤ -4.2
5,U31G C36U U53A G58C C69U G83U C118A U134A G143C G152U,≤ -4.2
6,U31C C95U A97U C99U G133U A150G,≤ -4.2
7,U33A A73U C85U U127G,-2.45
8,U33G C36A G50A A52C G84A A97C A138C,-3.92
9,C32G U45A U56A A91U C93G A107C,≤ -4.2
10,G34A U55G,-0.61
11,U31G G68A C75G C105G C131G U139G,≤ -4.2
12,G34A U55G G88U C105A,≤ -4.2
13,U33C G42A C93U C108U,≤ -4.2
14,U31G G34A U61A C85G,≤ -4.2
15,U31G G50U U82C A147U,-0.72
16,G34A C36U A60C G71A G84A,≤ -4.2
17,C32A G84A A89G A97G U134A U148A,≤ -4.2
18,A30G A60C A110G A113U A150G,≤ -4.2
19,U31G U33G U61G C72U C87G A106C U135G,≤ -4.2
20,C32G G58A C93A G128A,-4.2
21,A30G C63A C99U,≤ -4.2
22,U33G C85U U139G,-3.72
23,G34U A47C G67A C79A G84C C95A C123G U135G,≤ -4.2
24,U33A A98G G124C,≤ -4.2

row,Variant,polymerase ribozyme fitness (log ratio)
1,U31C G81C C85U C99G,-0.592
2,A30C G42U C54U C63G G68A C93U A121G G140A,≤ -4.2
3,U31A C32G C72G A150U,≤ -4.2
4,A30C U31A U44A U55A C57G C76G,≤ -4.2
5,U31A A120G,0.523
6,A30U C85A C95A C125A U148A,≤ -4.2
7,U31G C93U C99U C116A A119G A142C,≤ -4.2
8,U31C G83C A107U,-4
9,C32U U44A A91G C118A,≤ -4.2
10,A30C G83C U101G A121U,≤ -4.2
11,C32G G48A G67U C85U C93G U145G,≤ -4.2
12,U31C G58C C95G A97G G143A,-2.96
13,U33C U53G U77A G143C,≤ -4.2
14,C32A U45A G80C C87G U90G G152U,≤ -4.2
15,A30C G71U A98G C103G,≤ -4.2
16,G34U C96G U144C,≤ -4.2
17,A30U A39U G62A G70A A89C C129A A142C,≤ -4.2
18,A30G C38U C54G C72G C75G C96G A147U,≤ -4.2
19,U33A A52G C85A C95A U148C U151A,≤ -4.2
20,U31A U53A G83U G100C G133A,≤ -4.2
21,U33C U45A C85G G133U,≤ -4.2
22,C32G C79G C103G C105U A119U G140U,≤ -4.2
23,A30U C38U G50C U56G G83U A137C,≤ -4.2
